How the values were obtained:
[1] = target: recombinant soluble urokinase plasminogen activator receptor (suPAR, aa 1-279) (UniProt Q03405); assay: direct binding assay (format and antigen form not stated)
[2] = target: recombinant soluble urokinase plasminogen activator receptor (suPAR, aa 1-279) (UniProt Q03405); assay: ELISA on suPAR, bound Biotin-ATN-658 detected with HRP-streptavidin

Kd [1]: 1 nM | EC50 (read off the curve) [2]: 0.2 nM
Substance: mAb ATN-658 (antibody)

Source: patent US20090180952A1
